The source of these data is US20070059320A1.

For the experiment, the target named is NADH dehydrogenase subunit 2 (ND2), native protein in brain lysates, PSD preparations, hippocampal neurons and tissues (rat) (UniProt P11662). Kind of experiment: cell-based or functional assay.
Chain of NADH dehydrogenase subunit 2 (ND2), native protein in brain lysates, PSD preparations, hippocampal neurons and tissues (rat) (P11662 whole entry): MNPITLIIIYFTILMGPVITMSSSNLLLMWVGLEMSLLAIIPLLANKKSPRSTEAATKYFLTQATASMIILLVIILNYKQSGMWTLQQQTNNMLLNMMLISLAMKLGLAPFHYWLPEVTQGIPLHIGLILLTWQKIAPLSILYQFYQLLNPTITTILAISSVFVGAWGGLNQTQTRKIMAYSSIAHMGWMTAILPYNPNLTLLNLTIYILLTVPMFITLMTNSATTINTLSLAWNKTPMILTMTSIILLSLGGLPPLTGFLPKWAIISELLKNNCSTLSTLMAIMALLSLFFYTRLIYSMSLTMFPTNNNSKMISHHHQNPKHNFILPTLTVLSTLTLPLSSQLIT

As to “Src40-58 peptide (amino acid residues 40-58 of SEQ ID NO:4)”, the NMDAR component of mEPSCs (cultured hippocampal neurons, whole-cell recording) was determined as 56%.
